This note sets out measurements from publication PMC4865371, “ESCRT-III activation by parallel action of ESCRT-I/II and ESCRT-0/Bro1 during MVB biogenesis” (eLife, 2016).

This data set deals with the molecule itself. As to the kind of experiment: negative stain transmission electron microscopy; purified recombinant Snf7 protein alone; protofilament assembly looked for.

B1: Snf7^1-225 (α6 truncated Snf7) (domain or fragment, Saccharomyces cerevisiae, UniProt P39929 1-225, looked up)
chain: MWSSLFGWTSSNAKNKESPTKAIVRLREHINLLSKKQSHLRTQITNQENEARIFLTKGNKVMAKNALKKKKTIEQLLSKVEGTMESMEQQLFSIESANLNLETMRAMQEGAKAMKTIHSGLDIDKVDETMDEIREQVELGDEISDAISRPLITGANEVDEDELDEELDMLAQENANQETSKIVNNNVNAAPISENKVSLPSVPSNKIKQSENSVKDGEEEEDEED
notes: Snf7/Vps32, Saccharomyces cerevisiae, residues 1-225, lacks the C-terminal α6 helix; source: recombinant, purified as described (Buchkovich et al., 2013; Henne et al., 2012; Tang et al., 2015)
Turning to B1, the binding result is reported as “binds”.

B2: Snf7^Q90L (natural protein, Saccharomyces cerevisiae, UniProt P39929 1-240, looked up)
chain: MWSSLFGWTSSNAKNKESPTKAIVRLREHINLLSKKQSHLRTQITNQENEARIFLTKGNKVMAKNALKKKKTIEQLLSKVEGTMESMEQLLFSIESANLNLETMRAMQEGAKAMKTIHSGLDIDKVDETMDEIREQVELGDEISDAISRPLITGANEVDEDELDEELDMLAQENANQETSKIVNNNVNAAPISENKVSLPSVPSNKIKQSENSVKDGEEEEDEEDEDEKALRELQAEMGL
notes: Snf7/Vps32, Saccharomyces cerevisiae, with the point mutation Q90L found in the vps20Δ suppressor screen; source: recombinant, purified as described (Buchkovich et al., 2013; Henne et al., 2012; Tang et al., 2015)
As for B2, the binding result is reported as “binds”.
